These results are taken from patent publication US20230250157A1 (CALIFORNIA INSTITUTE OF TECHNOLOGY, published 2023).

Experiment [1] addresses T1, SARS-CoV-2 WA1 RBD (SARS-CoV-2 WA1, UniProt P0DTC2 319-539).
T1 construct: range 319-539
Briefly: Beacon optofluidic screen: IgG secreted by single B cell, RBD on beads.

Experiment [2] concerns the target T1, SARS-CoV-2 WA1 RBD. Briefly: X-ray crystallography of SEC-purified Fab-RBD complex.
Experiment [3] addresses T1, SARS-CoV-2 WA1 RBD. The experiment is described as follows: X-ray crystallography of SEC-purified Fab-RBD complex (PDB 7UZD).
Experiment [4] deals with T2, SARS-CoV RBD (SARS-CoV, UniProt P59594 318-510). The experiment is described as follows: ELISA, coated RBD, purified IgG.
Experiment [5] concerns the target T1, SARS-CoV-2 WA1 RBD. Briefly: X-ray crystallography of SEC-purified Fab-RBD complex (PDB 7UZC).
Experiment [6] concerns the target T2, SARS-CoV RBD. Briefly: Beacon optofluidic screen: IgG secreted by single B cell, RBD on beads.
The target in experiment [7] is T1, SARS-CoV-2 WA1 RBD. The experiment is described as follows: ELISA, purified IgG.

B1: M8a-6 (antibody, V domains shown)
VH: QVQLQQPGTELVMPGASVKLSCKTSGYTFTHYWMHWVKQRPGEGLEWIGEIAPSDNYVKYNQKFKGKSTLSVDRSSSTAYMQLSSLTSEDSAVYFCARPDNSGYPVYFDYWGQGTSLTVSS
VL: DIVMTQSQKFMSTSLGDRVSISCKASQDVGTTVAWYQQKPGQSPKLLIYWASTRHTGVPDRFTGTGSGTDYTLTISSVAAEDLALYYCQQHYNTPYTFGGGTKLEIE
For B1, the binding result with SARS-CoV-2 WA1 RBD [1] is reported as “binds”.

B2: M8a-6 Fab (Fab, V domains shown)
VH: QVQLQQPGTELVMPGASVKLSCKTSGYTFTHYWMHWVKQRPGEGLEWIGEIAPSDNYVKYNQKFKGKSTLSVDRSSSTAYMQLSSLTSEDSAVYFCARPDNSGYPVYFDYWGQGTSLTVSS
VL: DIVMTQSQKFMSTSLGDRVSISCKASQDVGTTVAWYQQKPGQSPKLLIYWASTRHTGVPDRFTGTGSGTDYTLTISSVAAEDLALYYCQQHYNTPYTFGGGTKLEIE
Take B2: the binding result in the experiment with SARS-CoV-2 WA1 RBD [2] was “binds”.

B3: HSW-2 Fab (Fab, V domains shown)
VH: QVQLQQSGPELVKPGASVKISCKASGYVFSTSWMSWVKQRPGEGPEWIGRIYPRDGHSSSTGKFKDKATLTADKSSNTAYIHLSSLTSEDSAVYFCARDYGYYYFDYWGQGTTLTVSS
VL: DIQMTQSPASLSASVGEAVTITCRLSENVYSFLAWYQQKQGKSPQLLVYRAKTLAEGVPSRFSGSGSGTQFSLKINSLQPEDFGTYYCQHHYGTPPTFGGGTKLEIK
Take B3: the binding result with SARS-CoV-2 WA1 RBD [3] is listed as “binds”.

B4: HSW-2 (antibody, V domains shown)
VH: QVQLQQSGPELVKPGASVKISCKASGYVFSTSWMSWVKQRPGEGPEWIGRIYPRDGHSSSTGKFKDKATLTADKSSNTAYIHLSSLTSEDSAVYFCARDYGYYYFDYWGQGTTLTVSS
VL: DIQMTQSPASLSASVGEAVTITCRLSENVYSFLAWYQQKQGKSPQLLVYRAKTLAEGVPSRFSGSGSGTQFSLKINSLQPEDFGTYYCQHHYGTPPTFGGGTKLEIK
B4: the binding result is recorded as “no binding (tested: up to 100 µg/mL IgG)” with SARS-CoV RBD [4] and “binds” with SARS-CoV-2 WA1 RBD [1].

B5: M8a-34 Fab (Fab, V domains shown)
VH: QVQLQQPGAELVKPGASVKMSCKASGYTFITYWITWVKQRPGQGLEWIGDIYPGGGRTNYNEKFKSKATLTVDTSSSTAYMQLRSLTSEDSAVYYCARYDGNYVGYYYAMDYWGQGTSVTVSS
VL: DIVLTQSPVSLAVSLGQRATISCRASESVDFYGNSFIYWYQQKPGQAPKLLIYRASNLESGIPARFSGSGSRTDFTLTIHPVEADDVATYYCQQSIEDPRTFGGGTKLEIK
Turning to B5, the binding result with SARS-CoV-2 WA1 RBD [5] is on record as “binds”.

B6: M8a-34 (antibody, V domains shown)
VH: QVQLQQPGAELVKPGASVKMSCKASGYTFITYWITWVKQRPGQGLEWIGDIYPGGGRTNYNEKFKSKATLTVDTSSSTAYMQLRSLTSEDSAVYYCARYDGNYVGYYYAMDYWGQGTSVTVSS
VL: DIVLTQSPVSLAVSLGQRATISCRASESVDFYGNSFIYWYQQKPGQAPKLLIYRASNLESGIPARFSGSGSRTDFTLTIHPVEADDVATYYCQQSIEDPRTFGGGTKLEIK
Turning to B6, the binding result with SARS-CoV-2 WA1 RBD [1] and with SARS-CoV RBD [6] was “binds” throughout.

B7: M8a-28 (antibody, V domains shown)
VH: QVQLQQPGAELVKPGASVKMSCKASGYNFNHYWISWVKQRPGQGLEWIGDIYPLSHFTTYNEKFTNRATLTVDTSSTTAYMQLNSLTSDDSAVFYCARWDYFDSRTFDYWGQGTTLTVSS
VL: DILLTQFPAILSVSPGERVSFSCRASQTIGTNIHWYQQRINGSPRLLIKYASESISGIPSRFSGSGSGTDFSLSINNVESEDIADYYCQQINSWPLTFGAGTKLDLK
For B7, the binding result with SARS-CoV RBD [6] is given as “binds”.

B8: HSW-1 (antibody, V domains shown)
VH: QVQLQQPGAELVKPGTSMKLSCKASGYTFTSYWMHWVKQRPGQGLEWIGMIHPNSGSTKYNENFKSKATLTVDKSSSTAYMQFSSLTSEDSAVYYCVRSGSYYGTTYDYFDYWGQGTTLTVSS
VL: DIVLTQSPASLAVSLGQRATISCRASESVNIYGNSFMHWYQQKPGQPPKLLIFRASNLESGIPVRFSGSGSRTDFTLTINPVEADDVATYYCHQSNEDPFTFGSGTKLEIK
In the case of B8, the binding result in the experiment with SARS-CoV RBD [4] is “no binding (tested: up to 100 µg/mL IgG)”; in the experiment with SARS-CoV-2 WA1 RBD [1] it was “binds”.

B9: M8a-3 (antibody, V domains shown)
VH: QVQLQQPGAELVLPGASVKLSCKASGYTFTNYWMHWVKQRPGHGLEWIGEIDPFDTYIKINQKFKGKSTLTVDTSSSTAYMQLSSLTSEDSAVYYCARPDSSGYPVYFDYWGQGTTLTVSS
VL: DIVMTQSHKFMSTSVGDRVSITCKASQDVGTYIAWYQQKPGQSPKLLIYWASTRHTGVPDRFTGSGSGTNYTLTISSVQAEDLALYHCQQHYSTPYTFGGGTKLEIK
Consider B9, for which the binding result with SARS-CoV RBD [6] is reported as “binds”.

B10: M8a-31 (antibody, V domains shown)
VH: EVQLKQSVAELVRPGASVKVSCTASGFNIKNIYMHWVKQRPEQGLDWIGRIDPANGNSRYAPKFQDKATITADTSSNTAYLQLSSLTSEDTAIYYCADEGWGFANWGQGTLVTVSA
VL: DIVMTQSPSSLTVTAGEKVTMSCKSSQSLLNSGNQKNYLTWYQQKVGQPPKLLIYWASTRDPGVPDRFTGSGFGTDFTLTISSVQAEDLAVYYCQNDYSYPLTFGAGTKVELK
For the molecule B10, the binding result with SARS-CoV-2 WA1 RBD [7] and in the experiment with SARS-CoV RBD [6] was “binds” each time.

B11: M8a-7 (antibody, V domains shown)
VH: QAYLQQSGAEMVRPGASVKMSCKASGYTFNNYNMHWVKQTPSQGLEWIGGFYPGNDDTAYSQKFKGKATLTVDKSSSTAFMHLSSLTSEDSAVYFCARSLGRYYAMDYWGQGTSVTVSS
VL: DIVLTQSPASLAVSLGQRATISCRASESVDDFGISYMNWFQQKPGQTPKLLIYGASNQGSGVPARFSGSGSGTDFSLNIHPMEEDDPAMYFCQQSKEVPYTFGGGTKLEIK
As for B11, in the experiment with SARS-CoV RBD [6], the binding result is recorded as “binds”.

B12: M8a-25 (antibody, V domains shown)
VH: EVQLQQSVAELVRPGASVKLSCTASGFNIKNTYMHWVKQRPEQGLEWIGRIDPSIDHTRYAPKFQGKAVITAFTSSNTAYLQLSSLTSEDTAIYYCAREGGGNYPYYYAIDYWGQGTSVTVSS
VL: DIQMTQSSSSFSVSLGDRVTITCKASEDIYIRLAWYQQRPGNAPRLLISNAISLETGVPSRFSGSGFGKDHTLSITSLQTEDVATYYCQQYWSTPWTFGGGTKLEIK
Regarding B12, the binding result in the experiment with SARS-CoV RBD [6] is “binds”.
